Test results as given in the supplement of paper PMC9732359.
± gives the uncertainty stated by the source.

Experiment: protein stability index of a GFP-peptide fusion (yeast GPS) (PSI 1-4); higher = more stable; sorted into four equal gates, so the index is relative within each strain
Conditions: doa10∆
Method in brief: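 Plasmids isolated from each sorting gate were PCR-amplified and Illumina-sequenced, and barcodes assigned the reads to strains. The gates, four of equal size, were set by GFP/Cherry fluorescence ratio on mid-log cultures in leucine-free medium. These cultures were yeast carrying a pooled library of tiled 17-residue yeast protein peptides fused downstream of GFP on a plasmid that also expresses Cherry. The protein stability index is the sum of every gate's read frequency times its gate number.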

Going from DPRHIQLLGDVMTYKGE [RPO31] to DQNEFLLERTREIHNEA [FAS2], the protein stability index rises from 2.91 ± 0.07 to 3.12 ± 0.092.

Going from DQRDELLEQKKSIINSQ [ITC1] to DQSIASGNTNGAGSAFG [YOR098C/NUP1], the protein stability index rises from 3.08 ± 0.085 to 3.26 ± 0.072.

DQVLVKGGEQISQLYSD [YJL041W/NSP1] and DRELNEVINQMERLDGD [SMC3] are within error of each other in protein stability index: 3.18 ± 0.091 for the first, 3.13 ± 0.086 for the second.

First: DRLILDLKLPPMDAYLK [SNU114]
Second: DRLSLQDRQQLLPLVVS [ECM29]
The protein stability index of the first is higher: 3.5 ± 0.14 for the first, 2 ± 0.051 for the second.

First: DRNLTEFDSTDTSLCIN [RRI1]
Second: DRREKAERTMSKKETKL [SMC2]
The protein stability index of the first is lower: 2.98 ± 0.12 for the first, 3.31 ± 0.13 for the second.

First: DSFSGAKIYPGRGTLFV [RPL24A]
Second: DSIYTKPVKVALIFIFF [YJL039C/NUP192]
The protein stability index of the first is higher: 3.13 ± 0.065 for the first, 1.69 ± 0.039 for the second.

Going from DSKGSLYSVKFAPAHLG [YGL100W/SEH1] to DSPFSLICQNNLNAFVD [SRP72], the protein stability index rises from 2.66 ± 0.11 to 2.98 ± 0.069.

Compared with DSSAHFKGALTIKILPE [YMR129W/POM152], DSVATVIEVIETKWDDA [YJR042W/NUP85] is lower in protein stability index: 2.67 ± 0.076 for the first, 2.32 ± 0.24 for the second.

DSVEFIFQAKRNSNPEN [RPN10] and DSVLQLASFEKTTDHLF [RPO31] are within error of each other in protein stability index: 2.75 ± 0.087 for the first, 2.63 ± 0.054 for the second.

First: DTEMKMKSLLTELSNKE [YIL149C/MLP2]
Second: DTFELIKTFLVDLTSSN [YDL116W/NUP84]
The protein stability index of the first is higher: 3.31 ± 0.065 for the first, 2.69 ± 0.07 for the second.

Going from DTGTLDTKSVVGLVMFS [RPN2] to DTKKVKESPANDQASNE [YIL149C/MLP2], the protein stability index rises from 2.67 ± 0.083 to 3.17 ± 0.13.

Going from DTSKALLNVSVNITKFS [SKI6] to DTTVNDCLDKLLNDECT [SNF2], the protein stability index rises from 2.27 ± 0.08 to 3.43 ± 0.16.

Going from DVAIENNTLSRYADAGN [RRP43] to DVAYLLKSESATSQYLK [YGL172W/NUP49], the protein stability index falls from 3.36 ± 0.045 to 2.25 ± 0.14.

Compared with DVFDTLATYCPRVQGFY [GRR1], DVHLLESKVYHKLRNLA [RPN6] is lower in protein stability index: 2.65 ± 0.075 for the first, 1.95 ± 0.069 for the second.

First: DVILDYQTKKFYDYIKE [REC8]
Second: DVKLLHSQFMKDLKDDS [YJL039C/NUP192]
The protein stability index of the first is lower: 2.4 ± 0.06 for the first, 2.72 ± 0.075 for the second.

First: DVKVSISHDDLQAVAVA [FAS2]
Second: DVNALKFNNTQRESQIG [SNF12]
The protein stability index of the first is higher: 2.66 ± 0.076 for the first, 2.31 ± 0.092 for the second.

Going from DVNIVNRRLVYSRILKS [YCG1] to DVSVKMGNTKVHCRISC [RRP45], the protein stability index rises from 1.36 ± 0.1 to 2.21 ± 0.14.

Compared with DVVAHRQLAGAIGYEPL [DIS3], DVYASKVRLNASEREEL [PRP8] is lower in protein stability index: 2.65 ± 0.074 for the first, 1.93 ± 0.062 for the second.

Compared with DWGQALRLLLLLIEFPY [YJR042W/NUP85], DYDVSKKASEISVSSRS [SRP14] is higher in protein stability index: 1.44 ± 0.05 for the first, 3.52 ± 0.15 for the second.

DYINELSNSNRFELHGD [REC8] and DYSINSRYEPKVFDCGD [PRE7] are within error of each other in protein stability index: 2.78 ± 0.12 for the first, 2.73 ± 0.076 for the second.

First: EAAAAEEGEEEEVKEEV [RPS0B]
Second: EAELSSTKVENSAIIQN [YIL149C/MLP2]
The protein stability index of the first is higher: 3.24 ± 0.13 for the first, 2.77 ± 0.11 for the second.

Compared with EAGASAELDDCRGVSEN [RPO21], EAGLQLCRQGHNMLNLL [PRP8] is lower in protein stability index: 3.47 ± 0.11 for the first, 2.24 ± 0.079 for the second.

First: EAHNKALNQFKRKLLEH [RPT4]
Second: EAIRDPKNSSSPVQIAF [SSN8]
The protein stability index of the first is higher: 3.32 ± 0.27 for the first, 2.55 ± 0.17 for the second.

First: EALNLLKFFLVDENETV [LIN1]
Second: EALVERRRAFKRSQKKH [RPB4]
The protein stability index of the first is lower: 1.52 ± 0.06 for the first, 3.12 ± 0.099 for the second.

EAMLRENIEVILSNGRM [SNF12] and EAMMLKEEGLQQFNLHE [MED1] are within error of each other in protein stability index: 2.79 ± 0.063 for the first, 2.97 ± 0.16 for the second.

Going from EAVDDVFQAKMMDMLKQ [RPN11] to ECPAIPIFNYIFTEKIY [YJL039C/NUP192], the protein stability index falls from 2.42 ± 0.053 to 1.34 ± 0.035.

First: EDARRNPNPSSQRAQVV [RPC37]
Second: EDCDLVIMALMLMSKIG [POP5]
The protein stability index of the first is higher: 3.18 ± 0.073 for the first, 1.46 ± 0.038 for the second.

EDDNNNVEKPSSKPAFN [YLR335W/NUP2] and EDGPRPFKVFLDIGLQR [RPL5] are within error of each other in protein stability index: 3.12 ± 0.061 for the first, 3 ± 0.068 for the second.

EDGTFSVLYPDELEDDT [RRP43] and EDHVEDHRKRKKSKIQL [LIN1] are within error of each other in protein stability index: 3.23 ± 0.086 for the first, 3.17 ± 0.093 for the second.

Compared with EDISKATHLPKDNVEHL [RPN9], EDKQNIEINEDNSQDDQ [RRI2] is higher in protein stability index: 2.91 ± 0.084 for the first, 3.44 ± 0.073 for the second.

Compared with EDNAGVIANPKGEMKGS [RPL23A], EDNNDAVNSIMALKFVS [ECM29] is higher in protein stability index: 1.82 ± 0.18 for the first, 3.15 ± 0.1 for the second.

Going from EDNYNPKMQWSLQDNSA [RPN4] to EDVLSSFYRVEKIKKIN [SSN2], the protein stability index falls from 3.21 ± 0.11 to 1.7 ± 0.28.

EDYELSPQAVSSFVRQE [PRE1] and EEAKSVLPAATKKKSKF [ARP9] are within error of each other in protein stability index: 2.29 ± 0.14 for the first, 2.1 ± 0.062 for the second.

Going from EECGRTIHRSFTICLND [CSN12] to EEELFEVTKEEDIIANY [RRP43], the protein stability index rises from 2.93 ± 0.064 to 3.17 ± 0.088.

Going from EEELWNSPSKGNSERPS [YIL149C/MLP2] to EEERRKKRESGVEEEEE [SNF2], the protein stability index rises from 3.11 ± 0.1 to 3.49 ± 0.079.

Going from EEIRSQIDHFKSMLSKP [SWI3] to EEIVVVASADYESQTFS [PRP8], the protein stability index rises from 1.65 ± 0.045 to 3.14 ± 0.069.

EEKEKEQSKEVGDVVGG [BRN1] and EEKKKEHEEKEKERETN [RPN2] are within error of each other in protein stability index: 3.29 ± 0.091 for the first, 3.3 ± 0.23 for the second.

EEKSNEVKTPKIPLFTF [SIR4] and EEKVIERAAQKLRLDQL [ISW2] are within error of each other in protein stability index: 2.82 ± 0.061 for the first, 2.81 ± 0.15 for the second.

First: EERMGQIENLNEVCLEK [SMC4]
Second: EESLTVLNCLRTMYFIL [YJR042W/NUP85]
The protein stability index of the first is higher: 3.48 ± 0.28 for the first, 2.54 ± 0.11 for the second.

Compared with EEVEDQINPTRETNDDI [SNF2], EEVQQAQTEIKLFNKWS [RPS5] is higher in protein stability index: 2.25 ± 0.079 for the first, 3.17 ± 0.1 for the second.

Compared with EEYARRLAEFKRRKLDL [SMC4], EFEIPVSFNGFKLPKKF [BRR2] is lower in protein stability index: 3.13 ± 0.13 for the first, 2.58 ± 0.1 for the second.

First: EFETPTFLVSNDDEVSQ [RPN14]
Second: EFFVQVLTHESLHRQQQ [DLS1]
The protein stability index of the first is lower: 2.69 ± 0.092 for the first, 2.99 ± 0.19 for the second.

First: EFKIEQNNEQNPIDPFN [YDL116W/NUP84]
Second: EFNFTNLQAKPLVGKPK [YAR002W/NUP60]
The protein stability index of the first is higher: 2.96 ± 0.087 for the first, 2.1 ± 0.06 for the second.

Compared with EFNSIDRVIFRVPIRSE [PRP8], EFQPSGNVTELYGTAIG [PRE5] is lower in protein stability index: 3.32 ± 0.089 for the first, 2.15 ± 0.069 for the second.

EFSEHTFVERLPNETIN [DIS3] and EGHLAEIRAKEYKTSSD [SRB2] are within error of each other in protein stability index: 3.34 ± 0.16 for the first, 3.22 ± 0.11 for the second.

EGLIRLDNLTEDPNSAA [DIS3] and EGQENNYNSTSRSTEKK [SIR4] are within error of each other in protein stability index: 3.23 ± 0.066 for the first, 3.3 ± 0.17 for the second.

Compared with EGYQNDINTIKLQLSFV [SRP72], EHAKWGPAAAIEFEYDP [RPB3] is lower in protein stability index: 3.12 ± 0.21 for the first, 2.54 ± 0.078 for the second.

EHIKQDYVASLNELYQT [NSL1] and EHKPVSPDKIGTFTADY [SSN2] are within error of each other in protein stability index: 2.91 ± 0.062 for the first, 2.98 ± 0.071 for the second.

Going from EIEELKSSIQNLNELES [SMC3] to EIEQVCKQVHDKLTSIQ [MED7], the protein stability index rises from 1.66 ± 0.2 to 2.92 ± 0.067.

Going from EIHPITFPPEVLARISP [RRP43] to EIIPLQDYYIIGANIYQ [MED6], the protein stability index rises from 2.05 ± 0.041 to 2.97 ± 0.064.

First: EIKKVTQIVAKFPETSY [SIN4]
Second: EILYYQIKTLPEQYSDI [AAR2]
The protein stability index of the first is lower: 2.25 ± 0.27 for the first, 2.9 ± 0.081 for the second.

Same assay, conditions: pdr5∆

DPRHIQLLGDVMTYKGE [RPO31] gave a protein stability index of 3.17 ± 0.055.
